Data: the RNAGym collection of RNA variant scans (doi:10.1073/pnas.2313332121)

B1: TPR t1 (parent)
chain: GACCAAUCUGCCCUCAGAGCUCGAGAACAUCUUCGGAUGCAGAGGAGGCAGGCUUCGGUGGCGCGAUAGCGCCAACGUCCUCAACCUCCAAUGCAUCCCACCACAUGAUGAUGCCUGAAGAGCCUUGGUUUUUUG

Variants of: B1
Test: polymerase ribozyme fitness, log enrichment relative to wild type (log ratio); higher = more active; in vitro selection for triplet polymerase activity
In short: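 To select mutant libraries of each subunit of a heterodimeric triplet polymerase ribozyme, built by PCR and transcribed, each was annealed with a biotinylated primer, partner subunit and triplets, then incubated frozen at −7 °C. Extended constructs were gel-excised, captured on streptavidin beads and amplified by RT-PCR, in one round carried out in triplicate. Illumina sequencing of input and output libraries kept genotypes with ≥10 input reads and ≥1 read per output. Fitness is the base-2 logarithm of genotype enrichment relative to wild-type enrichment, from inverse-variance-weighted replicate averages.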

| Variant | polymerase ribozyme fitness (log ratio) |
| --- | --- |
| GACCAAUCUGCCUUCAGAGCUCGAGAACAUCUUCGGAUGCAGAGGAGGCAGGCUUCGGUGGCGCGAUAGCGGCAACGUCCUCAACCUCCAAUGCAUCCCACCACAUGAUGAUGCCUGAAGAGCCUUGGUUUUUUG [C13U C72G] | -0.128 |
| GACCAAUCUGCCCUCAGAGCUCGAGAACAUCUUCGGAUGCAGAGGAGGCAGGCUUCGGUGGCGUGAUAGCGCCAACGUUCUCAACCUCCAAUGCAUCCCACCACAUGAUGAUGCCUGAAGAGCCUUGGUUUUUUG [C64U C79U] | -0.541 |
| GACCAAUUUGCCCUCUGAGCUCGAGAACAUCUUCGGAUGCAGAGGAAGCAGGCUUCGGUGGCGCGAUAGCGCCAACGUCCUCAACCUCCAAUGCAUCCCAACACAUGAUGAUGCCUGAAGAGCUUUGGUUUUUUG [C8U A16U G47A C101A C124U] | -1.94 |
| GACCAAUCUGCCCUCAGAGCUCGAGAACAUCUUCGGAUGCAGAGGAGGCAGGCUUCUGUGGCGCGAUAGCGUCAACGUCCUCAACCUCCAAUGCAUCCCACCACAUGAAGAUGGCUGAAGAGCCUUGGUUUUUUG [G57U C72U U109A C114G] | -5.21 |
| GACCAAUCUGCCCUCAGAGCUCGAGAACAUCUUCGGAUGCAGAGGAGGCAGGCUUCGGUGGCGCGAUAGCGCCAACGUCCUAAACCUCCAAUGCAUCCCACCACUUGAUGAUGCCUGAAGAGCCUUGGUUUUUUG [C82A A105U] | -2.27 |
| GACCAAUCUGCCCUCAGAACUCGAGAACAUCUUCGGAUGCUGAGGAGGCAGGCUUGGGAGGCGCGAUAGCGCCAACGUCCUCAACCUCCAAUGCAUCCCACCACAUGAUGAUGCCUGAAGAGCCUUGGUUUUUUG [G19A A41U C56G U59A] | -5.05 |
| GACCAAUCUGCCCUCAGAGCUCGAGAACAUUUUCGGAUGCAGAGGGGGAAGGCUUCGGUAGCGCGAUAGCGCCAACGUCCUCAACCUCCAAUGCAUCCCACCACCUGAUAAUGCCUGAAGAGCCUUGGUUUUUUG [C31U A46G C49A G60A A105C G110A] | -5.83 |
| GACCAAUAUGCCCUCAGAGCUCGAGAACAUCUUCGGAUGCAGAGGAGGCAGGCUUCGGUUGCGCGAUAGCGCCAACGUCCUCAACCUCCAAUGCAUCCCACCAGAUGAUGAUGCCUGAAGAGCUUUGGUUUUUUG [C8A G60U C104G C124U] | -5.09 |
| GACCAAUCGGCCCUCAGAGCUCGAGAACAUCUUCGGAUGCAGAGGCGGCAGGCUUCGGUGGCGCGAUAGCGCCAACGUCCUCAACCUCCAAUGCAUCCCACCACAUGAUGAUGCCUGAAGAGCCUUGGUUUUUUG [U9G A46C] | -0.961 |
| GACCAAUCUGCCCUCAGAGCUCGAGAACAUCUUCGGAUGCAGAGGAGGCAGGCUUCGGUGGCGCGAUAGCGACAACGUCCUCAACCUACAAUGCAUCCCACCACAUGAUGAUGCCUGAAUAGCCUUGGUUUUUUG [C72A C88A G120U] | -0.866 |
| GACCAAUCUGCCCUCAGAGCUCGAGAACAUCUUCGGAUGCAGAGAAGGCAGGCUUCGGUGGCGCGAUAGCUCCAACGUCCUCAACCUCCAAUGCAUCCCACCACAUGAUGAUGCCUGAAAAGCCUUGGUUUUAUG [G45A G71U G120A U133A] | -0.0049 |
| GACCAAUCUGCCCUCAGAGCUCGAGAACAUCUUCGGAUGCAGAGGAGGCAGGCUUCGGGGGCGCGAUAGCGCCAACGACCUCAACCUCCAAUGCAUCCCACCACAUGAUGAUGCCUGAAGAGCCUUGGUUUUUUG [U59G U78A] | 0.3 |
| GACCAAUCUGCCCUCAGAGCUCGAGAACAUCUUCGGAUGCAGAGGAGGCAGGCUUCGGUGGCGCGAUAGCACCAACGUACUCAAUCUCCAAUGCAUCCCACCACAUGAUGAUGCCUGAAGAGCCUUGGUUUUUUG [G71A C79A C85U] | -2.89 |
| GACCAAUCCGCCCUCAGAGCUCGAGAACAUCUUCGGAUGCAGAGGAGUCAGGCUUCGGUGGCGCGAUAGCGCCAACGUCCUCAACCUCCAAUGCAUCCCACCACAUGAUGAUGCCUGAAGAGUCUUGGUUUUUUG [U9C G48U C123U] | 1.12 |
| GACCAAUCUGCCCUCAGAGGUCGAGAACAUCUUCGGAUGCAGAGGAGGCAGGCUUCGGUGGCGCGAUAGCGCCAACGUCCUCAACCUUCAAUGCAUCCCACCACAUGAUGAUGGCUGAAGAGCCUUGGUCUAUUG [C20G C88U C114G U130C U132A] | -5.66 |
| GACCAAUCUGCCCACAGAGCUCGAGAACAUCUUCGGAUGCAGAGGAGGCAUGCUUCGGUGGCGCGAUAGCGCCAACGUCCUCAACCUCCAAUGCAUCCCACCACAUGAUGAUGCCUGAAGAGCUUUGGUUUUUUA [U14A G51U C124U G135A] | -3.03 |
| GACCAAUCUGCCCUCAGAGCUCGAGAACAUCUUCGGAUGCAGAGGAGGCAGGCCUCGAUGGCGCGAUAGCGCCAACGUCCUCAACCUCCAACGCAUCCCACCACAUGAUGAUGCCUGAAGAGCCUUGGUUUUUUG [U54C G58A U92C] | -0.614 |
| GACCAAUCUGCCCUCAGAGAUCGAGAACAUCUUCGGAUGUAGAGGAGGCAGGCUUCGGUGGCGCGAUAGCGCCAACGUCCUCAACCUCCAAUGCAUCCCACCACAUGAUGAUGCCUGAAGAGCCUUGGUUUUUUG [C20A C40U] | -3.35 |
| GACCAAUCUGCCCUCAGAGCUCGAGAACAUCUUCGGAUGCAGAGGAGGCAGGCUUCGGUGGCGCGAUAGCGCCAACGUCCUCAACCUCCAAUGCAUCCCUCCACAUGAUGAUGCCUUAAGAGCCUUGGUUUUUUG [A100U G117U] | -3.66 |
| GACCAAUCUGCCCUCAGAGCUCGAGAACAUCUUCGGAUGCAGAGGAGGCAGGCUUCGGUGGCGCGAUAGCGCCAACGUCCUCAACCUCCAAUGCAUCCCACCACAUGAUGAUGUCUGAAGAGCCUUGGUUUUGUG [C114U U133G] | -0.517 |
| GACCAAUCUGCCCUCAGAGCUCGAGAAAAUCUUCGGAUGCAGAGGAGGCAGGCUUCGGUGGCCCGAUAGCGCCAACGUCCUCAACCUCCAAUGCAUCCCACCACAUGAUGAUGCCUGAAGAGCCUUGGUUUUUUG [C28A G63C] | -4.91 |
